Results taken from doi:10.1101/2021.05.06.441046.

Target: VFLIP_D614G spike with Foldon and purification tags enzymatically removed (SARS-CoV-2) (UniProt P0DTC2)
Assay: cryo-EM structure

Question: How did the stoichiometry N turn out when “HLX70 Fab (Fab from HLX70, a humanized pan-coronavirus mAb)” was run?
Answer: 3 Fab:spike
